# ± gives the uncertainty stated by the source.
# Assay: self-splicing fitness, log relative to wild type (ln ratio); higher = more splicing; Tetrahymena group I intron in knt gene, E. coli kanamycin selection, DiMSum; sequences stand for … in CUCUCU…GGAGGGAAAAGUUAUCAGGCAUGCACCUGGUAGCUAGUCUUUAAACCAAUAGAUUGCAUCGGUUUAAAAGGCAAGACCGUCAAAUUGCGGGAAAGGGGUCAACAGCCGUUCAGUACCAAGUCUCAGGGGAAACUUUGAGAUGGCCUUGCAAAGGGUAUGGUAAUAAGCUGACGGACAUGGUCCUAACCACGCAGCCAAGUCCUAAGUCAACAGAUCUUCUGUUGAUAUGGAUGCAGUUCACAGACUAAAUGUCGGUCGGGGAAGAUGUAUUCUUCUCAUAAGAUAUAGUCGGACCUCUCCUUAAUGGGAGCUAGCGGAUGAAGUGAUGCAACACUGGAGCCGCUGGGAACUAAUUUGUAUGCGAAAGUAUAUUGAUUAGUUUUGGAGUACUCGUGGUCG
# Outline: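 A randomised library covering all eight P1ex-region intron nucleotides was built with the intron in the knt kanamycin-resistance gene on pET-22b(+) and held in E. coli BL21(DE3). Cells were grown overnight at 37°C or 30°C on LB agar, with or without 25 μg/mL kanamycin, plus 100 μg/mL carbenicillin, 50 μM IPTG and 0.2% rhamnose, and pooled colonies were amplicon-sequenced on an Illumina HiSeq 2500. DiMSum fitness is the error-weighted combination of wild-type-normalised replicate fold changes, kanamycin versus none.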
Sequence,self-splicing fitness (ln) (30 °C),self-splicing fitness (ln) (37 °C)
UCGUAGCAAUAUUACGCACG,-1.8 ± 0.23,-0.584 ± 0.2
UCGUAGCAAUAUUACGCUCA,-0.522 ± 0.13,-0.556 ± 0.16
UCGUAGCAAUAUUACGCUUA,,-1.1 ± 0.47
UCGUAGCAAUAUUACGCUUC,-3.12 ± 0.48,
UCGUAGCAAUAUUACGGGCA,-0.422 ± 0.14,-0.0787 ± 0.13
UCGUAGCAAUAUUACGGGGA,-2.6 ± 0.28,-1.23 ± 0.23
UCGUAGCAAUAUUACGGGGG,-3.07 ± 0.44,-2 ± 0.47
UCGUAGCAAUAUUACGUACG,-3.07 ± 0.24,-1.96 ± 0.19
UCGUAGCAAUAUUACGUAGC,-2.27 ± 0.43,
UCGUAGCAAUAUUACGUAUG,-2.04 ± 0.14,-1.93 ± 0.2
UCGUAGCAAUAUUACGUCCG,-0.957 ± 0.074,-0.517 ± 0.091
UCGUAGCAAUAUUACGUCGC,,-1.37 ± 0.41
UCGUAGCAAUAUUACGUCUU,-2.7 ± 0.15,-0.44 ± 0.14
UCGUAGCAAUAUUACGUGAC,-1.99 ± 0.26,
UCGUAGCAAUAUUACGUUAG,-3.83 ± 0.3,-2.1 ± 0.46
UCUAAGCAAUAUUACGACCC,,-0.661 ± 0.44
UCUAAGCAAUAUUACGAGGA,-3.5 ± 0.4,-2.72 ± 0.44
UCUAAGCAAUAUUACGAGGU,-2.8 ± 0.27,-0.819 ± 0.17
UCUAAGCAAUAUUACGAUUC,-3.14 ± 0.16,-2.83 ± 0.23
UCUAAGCAAUAUUACGCACG,-1.11 ± 0.19,-1.8 ± 0.23
UCUAAGCAAUAUUACGCCGG,-1.15 ± 0.13,-0.186 ± 0.15
UCUAAGCAAUAUUACGCCUA,,-1.36 ± 0.26
UCUAAGCAAUAUUACGCGAC,,-2.84 ± 0.36
UCUAAGCAAUAUUACGCGUA,-3.11 ± 0.2,-2.27 ± 0.23
UCUAAGCAAUAUUACGCUAU,-3.62 ± 0.31,-3.37 ± 0.28
UCUAAGCAAUAUUACGGAUG,-2.9 ± 0.26,-1.99 ± 0.29
UCUAAGCAAUAUUACGGAUU,,-2.31 ± 0.23

Sequence,self-splicing fitness (ln) (30 °C),self-splicing fitness (ln) (37 °C)
UCUAAGCAAUAUUACGGGAA,-2.29 ± 0.22,-1.76 ± 0.14
UCUAAGCAAUAUUACGGUCU,-3.41 ± 0.21,-3.34 ± 0.31
UCUAAGCAAUAUUACGGUGA,-0.587 ± 0.099,-0.245 ± 0.1
UCUAAGCAAUAUUACGUAGA,-1.2 ± 0.098,-0.771 ± 0.15
UCUAAGCAAUAUUACGUCAA,-2.57 ± 0.24,-1.77 ± 0.27
UCUAAGCAAUAUUACGUGUG,-1.02 ± 0.075,-0.603 ± 0.1
UCUAAGCAAUAUUACGUUCA,-2.37 ± 0.17,-1.56 ± 0.15
UCUCAGCAAUAUUACGACUA,-1.87 ± 0.12,-1.37 ± 0.12
UCUCAGCAAUAUUACGACUG,-2.79 ± 0.17,-3.11 ± 0.28
UCUCAGCAAUAUUACGAGAU,-4.62 ± 0.46,-2.85 ± 0.35
UCUCAGCAAUAUUACGAGCA,-0.507 ± 0.081,0.222 ± 0.12
UCUCAGCAAUAUUACGAGCG,-0.123 ± 0.091,-0.0856 ± 0.1
UCUCAGCAAUAUUACGAGGU,,-1.53 ± 0.25
UCUCAGCAAUAUUACGCACC,-2.18 ± 0.42,
UCUCAGCAAUAUUACGCAGC,-3.54 ± 0.24,-2.32 ± 0.21
UCUCAGCAAUAUUACGCCGG,-2.33 ± 0.21,
UCUCAGCAAUAUUACGCCUG,,-2.27 ± 0.47
UCUCAGCAAUAUUACGCUAA,-3.89 ± 0.33,-2.23 ± 0.25
UCUCAGCAAUAUUACGCUGU,-2.3 ± 0.21,-1.17 ± 0.31
UCUCAGCAAUAUUACGGAGA,-3.23 ± 0.41,-3.43 ± 0.39
UCUCAGCAAUAUUACGGCCA,-2.65 ± 0.19,-1.69 ± 0.21
UCUCAGCAAUAUUACGGGAC,-2.31 ± 0.24,-2.87 ± 0.38
UCUCAGCAAUAUUACGGUAG,-2.3 ± 0.098,-1.99 ± 0.15
UCUCAGCAAUAUUACGGUCC,-3 ± 0.31,
UCUCAGCAAUAUUACGUAGC,-1.31 ± 0.17,-1.16 ± 0.23
UCUCAGCAAUAUUACGUCGA,-2.07 ± 0.11,-0.925 ± 0.12
UCUCAGCAAUAUUACGUGAG,-1.2 ± 0.054,-0.483 ± 0.072

Sequence,self-splicing fitness (ln) (30 °C),self-splicing fitness (ln) (37 °C)
UCUCAGCAAUAUUACGUUUA,-2.98 ± 0.18,-1.08 ± 0.13
UCUGAGCAAUAUUACGAAUA,,-1.82 ± 0.48
UCUGAGCAAUAUUACGACAG,-1.02 ± 0.12,-1.04 ± 0.15
UCUGAGCAAUAUUACGACCU,,-2.62 ± 0.31
UCUGAGCAAUAUUACGACUA,-2.49 ± 0.19,-1.64 ± 0.17
UCUGAGCAAUAUUACGACUU,-3.11 ± 0.33,
UCUGAGCAAUAUUACGAGCG,-1.93 ± 0.15,-2.37 ± 0.39
UCUGAGCAAUAUUACGAGGU,-3.18 ± 0.23,
UCUGAGCAAUAUUACGAUGC,,-0.729 ± 0.36
UCUGAGCAAUAUUACGCAUU,-3.77 ± 0.37,-2.15 ± 0.31
UCUGAGCAAUAUUACGCCAG,,-0.871 ± 0.46
UCUGAGCAAUAUUACGCCUU,-3.06 ± 0.12,-1.54 ± 0.14
UCUGAGCAAUAUUACGCGUU,-4.91 ± 0.45,-2.63 ± 0.28
UCUGAGCAAUAUUACGCUAA,-3.49 ± 0.34,
UCUGAGCAAUAUUACGGAAA,-3.08 ± 0.18,-1.64 ± 0.15
UCUGAGCAAUAUUACGGGCU,,-3.79 ± 0.42
UCUGAGCAAUAUUACGUACC,-3.19 ± 0.41,-1.96 ± 0.31
UCUGAGCAAUAUUACGUCAU,-3.81 ± 0.35,-2.76 ± 0.2
UCUGAGCAAUAUUACGUCGC,-4.03 ± 0.37,-2.54 ± 0.36
UCUGAGCAAUAUUACGUCUA,-1.67 ± 0.18,-2.17 ± 0.26
UCUGAGCAAUAUUACGUGAG,-1.86 ± 0.11,-0.646 ± 0.097
UCUGAGCAAUAUUACGUGUC,-4.14 ± 0.32,
UCUGAGCAAUAUUACGUUAA,-3.47 ± 0.29,-0.512 ± 0.15
UCUGAGCAAUAUUACGUUGU,-4.12 ± 0.21,-1.96 ± 0.18
UCUUAGCAAUAUUACGACAA,-2.45 ± 0.32,-1.18 ± 0.29
UCUUAGCAAUAUUACGACCG,-1.95 ± 0.36,-0.528 ± 0.34
UCUUAGCAAUAUUACGACUA,,-2.26 ± 0.45

Sequence,self-splicing fitness (ln) (30 °C),self-splicing fitness (ln) (37 °C)
UCUUAGCAAUAUUACGAGCG,-1.36 ± 0.13,-0.498 ± 0.15
UCUUAGCAAUAUUACGAGGG,-1.87 ± 0.16,-2.1 ± 0.25
UCUUAGCAAUAUUACGAUAA,-2.73 ± 0.46,-2.27 ± 0.4
UCUUAGCAAUAUUACGAUCC,-1.98 ± 0.38,
UCUUAGCAAUAUUACGCAGA,-1.55 ± 0.46,-1.36 ± 0.29
UCUUAGCAAUAUUACGCCAG,-2.74 ± 0.27,
UCUUAGCAAUAUUACGCCUU,,-1.86 ± 0.3
UCUUAGCAAUAUUACGCGAG,-2.25 ± 0.17,-2.92 ± 0.28
UCUUAGCAAUAUUACGGACA,-2.63 ± 0.2,-1.19 ± 0.14
UCUUAGCAAUAUUACGGAGU,-3.29 ± 0.13,-2.28 ± 0.11
UCUUAGCAAUAUUACGGGUA,-1.46 ± 0.076,-0.741 ± 0.084
UCUUAGCAAUAUUACGGGUG,-0.927 ± 0.055,-0.165 ± 0.069
UCUUAGCAAUAUUACGGUUA,,-2.37 ± 0.39
UCUUAGCAAUAUUACGUAAC,-3.34 ± 0.26,-1.95 ± 0.32
UCUUAGCAAUAUUACGUACA,-2.58 ± 0.19,-1.28 ± 0.16
UCUUAGCAAUAUUACGUAGC,-3.98 ± 0.46,-1.98 ± 0.21
UCUUAGCAAUAUUACGUCAG,-1.01 ± 0.16,-1.28 ± 0.2
UCUUAGCAAUAUUACGUGUA,-0.944 ± 0.17,-1.19 ± 0.2
UCUUAGCAAUAUUACGUUCG,-2.21 ± 0.11,-1.38 ± 0.18
UCUUAGCAAUAUUACGUUUG,-3.07 ± 0.17,-2.48 ± 0.27
UGAAAGCAAUAUUACGAAAC,,-1.79 ± 0.47
UGAAAGCAAUAUUACGAAGC,,-2.07 ± 0.28
UGAAAGCAAUAUUACGAAUG,-0.602 ± 0.066,-0.0842 ± 0.078
UGAAAGCAAUAUUACGAAUU,-1.7 ± 0.26,-1.66 ± 0.29

# — the supplement of paper PMC7877785
